Read-outs that look alike come from different tables or passages of the source. Each block holds one binder with its values, some of them ahead of it. No end group written: not given here.
Columns and labels:
Assay in all cases: fluorescence polarisation
[1] = target: T1, chloroplast signal recognition particle 43-kDa protein (cpSRP43), wild type, full length (A. thaliana, UniProt O22265 57-373)
T1 sequence: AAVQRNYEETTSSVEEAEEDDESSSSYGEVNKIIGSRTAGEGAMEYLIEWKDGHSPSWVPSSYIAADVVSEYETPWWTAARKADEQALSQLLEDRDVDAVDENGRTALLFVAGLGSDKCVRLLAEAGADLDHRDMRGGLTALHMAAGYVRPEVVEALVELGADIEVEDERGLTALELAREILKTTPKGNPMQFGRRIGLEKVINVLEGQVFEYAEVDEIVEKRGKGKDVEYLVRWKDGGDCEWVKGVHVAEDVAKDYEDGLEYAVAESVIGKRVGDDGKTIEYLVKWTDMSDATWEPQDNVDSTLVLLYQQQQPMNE

[2] = target: T1, chloroplast signal recognition particle …; remark: listed apart in the source
[3] = target: T1, chloroplast signal recognition particle …; remark: listed apart in the source

Kd [1]: 28 nM | Kd [2]: 12 nM | Kd [3]: 710 nM
B1: HiLyte Fluor 488-labeled L11 peptide (peptide)
peptide: GSFDPLGLADD
modifications: also: HiLyte Fluor 488 label, position not given here

Kd [1]: 230 nM | Kd [2]: 36 nM | Kd [3]: 5000 nM
B2: fluorescein-labeled 54C peptide (peptide)
peptide: QKQKAPPGTARRKRKAC
modifications: also: fluorescein label, position not given here

Source: PMC12164976 (Science Advances, 2025)
